Data published in publication PMC11067747.

Molecular target: recombinant phytoplasmal effector causing phyllody 1 (PHYL1)
Experiment: cross-linking; recombinant IMP and PHYL1 mixed at 30 µM each in 1x PBS, 15 min at 20°C, then 1 mM bis(sulfosuccinimidyl)suberate (BS3) for 60 min; SDS-PAGE and Western blot with anti-IMP and anti-PHYL1

**Q.** With “recombinant immunodominant membrane protein (IMP) without the transmembrane domain, amino acids 33-172, from Crotalaria witches' broom phytoplasma (domain or fragment)” as the substance, how does the stoichiometry N read?
**A.** 1
